Numbered stars: 1 amine (or outer) side, 2 acyl side, 3 side chain; on linkers, the order of the positions; unused ones are H or OH. Bridge positions count the residues as written; N and C are the ends. Square brackets hold non-standard residues; d marks the D form. Primed or numbered codes have the meaning given here. MB(4) = Monomer B (PyrS), N-Alloc pyrrolidine stapling residue, (S)-3-amino-1-(allyloxycarbonyl)pyrrolidine-3-carboxylic acid, C=CCOC(=O)N1CC[C@@](N[*:1])(C(=O)[*:2])C1; R7″ = stapling residue, (R)-2-(6-heptenyl)alanine (drawn only), C=CCCCCC[C@@](C)(N[*:1])C(=O)[*:2]; R4″ = stapling residue, (R)-2-(3-butenyl)alanine (drawn only), C=CCC[C@@](C)(N[*:1])C(=O)[*:2]; MB(3) = Monomer B = PyrS, pyrrolidine stapling residue with allyl carbamate; MI = Monomer I = ReN, acyclic amine-bearing olefin stapling residue; R7 = (R)-2-(6-heptenyl)alanine, C=CCCCCC[C@@](C)(N[*:1])C(=O)[*:2]; R6 = (R)-2-(5-hexenyl)alanine, C=CCCCC[C@@](C)(N[*:1])C(=O)[*:2]; S6 = (S)-2-(5-hexenyl)alanine, C=CCCCC[C@](C)(N[*:1])C(=O)[*:2]; MB(5) = Monomer B (PyrS), N-Alloc pyrrolidine stapling residue; R4 = (R)-2-(3-butenyl)alanine, C=CCC[C@@](C)(N[*:1])C(=O)[*:2]; MF = Monomer F (SdN), acyclic alkyl-N(Alloc) stapling residue; MG = Monomer G = RdN, acyclic alkyl-N(Alloc) stapling residue; MC = Monomer C = PyrR, Alloc-pyrrolidine stapling residue; MA = Monomer A (Az), N-Alloc azetidine stapling residue; S7 = C[C@@](CCCCCC=[*:3])(N[*:1])C(=O)[*:2]; R8 = C=CCCCCCC[C@@](C)(N)C(=O)O; αMeL = CC(C)C[C@](C)(N)C(=O)O; R5 = C=CCCC[C@@](C)(N)C(=O)O; αMeV = CC(C)[C@](C)(N)C(=O)O; S5 = C=CCCC[C@](C)(N)C(=O)O; Aib = CC(C)(N)C(=O)O
T1: full-length beta-catenin (UniProt P35222 2-781, limits assumed)
T1 construct: mature; also called full-length ß-Catenin; β-catenin
T1 sequence (looked up): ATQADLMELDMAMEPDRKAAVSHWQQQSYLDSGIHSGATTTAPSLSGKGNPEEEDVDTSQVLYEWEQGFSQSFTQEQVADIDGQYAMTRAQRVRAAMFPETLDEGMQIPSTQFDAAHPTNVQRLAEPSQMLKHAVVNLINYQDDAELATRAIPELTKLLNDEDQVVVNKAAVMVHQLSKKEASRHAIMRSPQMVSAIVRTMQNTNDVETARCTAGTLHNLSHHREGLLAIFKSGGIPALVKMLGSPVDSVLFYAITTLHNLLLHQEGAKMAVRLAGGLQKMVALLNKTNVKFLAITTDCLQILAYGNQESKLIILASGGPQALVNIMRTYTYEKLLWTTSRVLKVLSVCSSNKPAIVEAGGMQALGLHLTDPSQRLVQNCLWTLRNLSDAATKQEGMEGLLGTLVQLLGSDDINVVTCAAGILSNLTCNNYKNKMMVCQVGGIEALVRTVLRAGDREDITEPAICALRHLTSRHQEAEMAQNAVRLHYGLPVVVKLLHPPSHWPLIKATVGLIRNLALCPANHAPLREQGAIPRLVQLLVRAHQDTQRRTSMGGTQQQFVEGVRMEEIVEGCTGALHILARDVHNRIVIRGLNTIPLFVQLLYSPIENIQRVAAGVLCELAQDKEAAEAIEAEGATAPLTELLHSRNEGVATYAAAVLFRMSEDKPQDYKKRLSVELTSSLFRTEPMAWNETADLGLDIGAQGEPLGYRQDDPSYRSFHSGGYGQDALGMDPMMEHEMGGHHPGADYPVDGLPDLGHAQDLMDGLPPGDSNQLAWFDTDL


How the values were obtained:
full-length beta-catenin [1] = molecular target: T1, full-length beta-catenin; assay: competition FP
Method: (§1) In some embodiments, a competition fluorescence polarization assay is used to assess binding of provided compounds to beta-catenin. In an exemplary procedure, solutions of provided compounds, e.g., provided stapled peptides, were prepared in a buffer (e.g., 50 mM Tris pH 8.0, 250 mM NaCl, 2% glycerol, 0.5 mM EDTA, 0.02% w/v sodium azide) using a 3-fold serial dilution from 5 µM. Probe solution (15 nM full-length ß-Catenin, 20 nM FITC labeled peptide in buffer) was prepared and incubated for a period of time, e.g., 5 minutes, and the a volume, e.g., 40 µL per well plated in suitable plate, e.g., a black polystyrene 384-well plate (Corning). Equal volume of the serial diluted peptide was added to the plate and incubated protected from light for 15 minutes prior to read. Reads were performed on a Spectramax M5 (Molecular Devices) in duplicate. Suitable probe was FITC-PEG1-PQ-S5-ILD-S5-HVRRVWR (SEQ ID NO: 1) (hydrocarbon staple formed by two S5 via olefin metathesis) and/or FITC-bA-PQ-S5-ILD-S5-HVRRVWR (SEQ ID NO: 3) (hydrocarbon staple formed by two S5 via olefin metathesis). […] Another peptide, FPO217c (Ac-AR_8ILDAHIM$B5$RVW (SEQ ID NO: 280), with N-terminal proline removed and valine replaced with isoleucine compared to FP0025c) was prepared.

full-length beta-catenin [2] = molecular target: T1, full-length beta-catenin; assay: competition FP, grade of FP EC50 (+: 500-5000 nM)
Method: as §1

full-length beta-catenin [3] = molecular target: T1, full-length beta-catenin; assay: competition FP, grade of FP EC50 (+++: <=100 nM)
Method: as §1

full-length beta-catenin [4] = molecular target: T1, full-length beta-catenin; assay: competition FP, grade of FP EC50 (++: 100-500 nM)
Method: as §1

| Binder | EC50 (full-length beta-catenin [1]) [nM] | FP EC50 (full-length beta-catenin [2]) [nM] | FP EC50 (full-length beta-catenin [3]) [nM] | FP EC50 (full-length beta-catenin [4]) [nM] |
| --- | --- | --- | --- | --- |
| Ac-PQ[MA]ILD[R4]HVRRVWR-NH2 (staple 3-7) [FP0721c] | 1300 | 500 to 5000 |  |  |
| Ac-PQ[MA]ILD[R5]HVRRVWR-NH2 (staple 3-7) [FP0723c] | 1400 | 500 to 5000 |  |  |
| Ac-PQ[MA]ILD[S5]HVRRVWR-NH2 (staple 3-7) [FP0724c] | 540 | 500 to 5000 |  |  |
| Ac-PQ[MA]ILD[R6]HVRRVWR-NH2 (staple 3-7, also called Az/R6) [FP0725c] | 80 |  | ≤ 100 |  |
| Ac-PQ[MA]ILD[R7]HVRRVWR-NH2 (staple 3-7) [FP0727c] | 520 | 500 to 5000 |  |  |
| Ac-PQ[MA]ILD[S7]HVRRVWR-NH2 (staple 3-7) [FP0728c] | 2100 | 500 to 5000 |  |  |
| Ac-PQ[R4″]ILD[MA]HVRRVWR-NH2 (staple 3-7) [FP0731c] | 4700 | 500 to 5000 |  |  |
| Ac-PQ[R5]ILD[MA]HVRRVWR-NH2 (staple 3-7) [FP0733c] | 920 | 500 to 5000 |  |  |
| Ac-PQ[R6]ILD[MA]HVRRVWR-NH2 (staple 3-7) [FP0735c] | 1600 | 500 to 5000 |  |  |
| Ac-PQ[S6]ILD[MA]HVRRVWR-NH2 (staple 3-7) [FP0736c] | 890 | 500 to 5000 |  |  |
| Ac-PQ[S7]ILD[MA]HVRRVWR-NH2 (staple 3-7) [FP0738c] | 1800 | 500 to 5000 |  |  |
| Ac-PQ[MC]ILD[R5]HVRRVWR-NH2 (staple 3-7) [FP0743c] | 740 | 500 to 5000 |  |  |
| Ac-PQ[MB(3)]ILD[S5]HVRRVWR-NH2 (staple 3-7) [FP0751c] | 2000 | 500 to 5000 |  |  |
| Ac-PQ[MB(3)]ILD[S6]HVRRVWR-NH2 (staple 3-7) [FP0752c] | 2600 | 500 to 5000 |  |  |
| Ac-PQ[R5]ILD[MB(3)]HVRRVWR-NH2 (staple 3-7) [FP0758c] | 2700 | 500 to 5000 |  |  |
| Ac-PQ[R4]ILD[MC]HVRRVWR-NH2 (staple 3-7, also called R4/PR) [FP0765c] | 30 |  | ≤ 100 |  |
| Ac-PQ[R5]ILD[MG]HVRRVWR-NH2 (staple 3-7; also: carbamate staple (-N(R')-C(O)-O-) by ring-closing olefin metathesis) [FP0776c] | 570 | 500 to 5000 |  |  |

| Binder | EC50 (full-length beta-catenin [1]) [nM] | FP EC50 (full-length beta-catenin [2]) [nM] | FP EC50 (full-length beta-catenin [3]) [nM] | FP EC50 (full-length beta-catenin [4]) [nM] |
| --- | --- | --- | --- | --- |
| Ac-PQ[R5]ILD[MI]HVRRVWR-NH2 (staple 3-7; also: carbamate staple (-N(R')-C(O)-O-) by ring-closing olefin metathesis) [FP0777c] | 560 | 500 to 5000 |  |  |
| Ac-PQ[MD]ILD[S5]HVRRVWR-NH2 (staple 3-7; not fully specified; also: carbamate staple (-N(R')-C(O)-O-) by ring-closing olefin metathesis) [FP0778c] | 1000 | 500 to 5000 |  |  |
| Ac-PQ[MF]ILD[S5]HVRRVWR-NH2 (staple 3-7; also: carbamate staple (-N(R')-C(O)-O-) by ring-closing olefin metathesis) [FP0779c] | 1300 | 500 to 5000 |  |  |
| Ac-PQ[MH]ILD[S5]HVRRVWR-NH2 (staple 3-7; also: carbamate staple (-N(R')-C(O)-O-) by ring-closing olefin metathesis) [FP0780c] | 1700 | 500 to 5000 |  |  |
| Ac-PQ[MI]ILD[R5]HVRRVWR-NH2 (staple 3-7; also: carbamate staple (-N(R')-C(O)-O-) by ring-closing olefin metathesis) [FP0783c] | 990 | 500 to 5000 |  |  |
| Ac-A[R6]ILDAHI[MF]RVW-NH2 (staple 2-9; also: carbamate staple, isomer 2, olefin geometry not assigned, also called FP0502c (Peak 2)) [FP0502c Isomer 2] |  |  |  | 100 to 500 |
| AXILDAHIXRVW (not fully specified; Ac-A-R7-I-L-D-A-H-I-MF-R-V-W-NH2; amino staple R7/MF) [FP0503a] |  |  |  | 100 to 500 |
| Ac-A[R7]ILDAHI[MF]RVW-NH2 (staple 2-9; also: carbamate staple, olefin geometry not assigned) [FP0503c] |  |  |  | 100 to 500 |
| Ac-A[MI]ILDAHI[S5]RVW-NH2 (staple 2-9; also: carbamate staple, isomer 1, olefin geometry not assigned) [FP0506c Isomer 1] |  |  |  | 100 to 500 |
| Ac-A[R7″]ILDAHI[MA]RVW-NH2 (staple 2-9; not fully specified; printed as Ac-A-R7-I-L-D-A-H-I-MA-R-V-W-NH2) [FP0516a Isomer 1] |  |  |  | 100 to 500 |
| Ac-A[R7″]ILDAHI[MA]RVW-NH2 (staple 2-9) [FP0516c] |  |  |  | 100 to 500 |
| AXILDAHIXRVW (not fully specified; Ac-A-MG-I-L-D-A-H-I-MF-R-V-W-NH2; carbamate staple MG/MF) [FP0594c] |  |  |  | 100 to 500 |
| AXILDAHIXRVW (not fully specified; Ac-A-MA-I-L-D-A-H-I-MI-R-V-W-NH2; carbamate staple MA/MI) [FP0625c] |  |  |  | 100 to 500 |
| Ac-A[Aib]ILDAHI[Aib]RVW-NH2 (SMILES CC[C@H](C)[C@H](NC(=O)[C@H](Cc1c[nH]cn1)NC(=O)[C@H](C)NC(=O)[C@H](CC(=O)O)NC(=O)[C@H](CC(C)C)NC(=O)[C@@H](NC(=O)C(C)(C)NC(=O)[C@H](C)NC(C)=O)[C@@H](C)CC)C(=O)NC(C)(C)C(=O)N[C@@H](CCCNC(=N)N)C(=O)N[C@H](C(=O)N[C@@H](Cc1c[nH]c2ccccc12)C(N)=O)C(C)C) [FP0628_aib] |  |  |  | 100 to 500 |
| Ac-A[R8]ILDAHI[MB(5)]RV[dW]-NH2 (staple 2-9) [FP0630c] |  |  |  | 100 to 500 |
| Ac-A[R8]ILDAHI[MB(4)]R[αMeV]W-NH2 (staple 2-9) [FP0632c] |  |  |  | 100 to 500 |
| Ac-A[R8]I[αMeL]DAHI[MB(4)]RVW-NH2 (staple 2-9) [FP0644c] |  |  |  | 100 to 500 |

Reference: patent US11198713B2, “Agents modulating beta-catenin functions and methods thereof” (FOG PHARMACEUTICALS, INC., priority 2017, dated 2021)
